Results published in patent US11021687B2, “Production of differentiated enteroendocrine cells and insulin producing cells” (Massachusetts Institute of Technology, priority 2016, dated 2021).

Experiments:
Type in all cases: cell-based, mouse
[1] = test system: intestinal stem cells; assay: Ngn3 mRNA expression during EEC differentiation; conditions: 2 days
Experimental: “Ngn3 Assay” as used herein is an assay used to determine the extent of expression of Ngn3 in cells, such as cells subjected to a differentiation protocol. In an exemplary Ngn3 Assay, RNA is isolated from cells that have been cultured according to a differentiation protocol, and quantitative real-time PCR is performed using commercially available primers and probes (such as Taqman probes) to determine an extent of Ngn3 expression in the cells.
(§1) Organoids or differentiated cells were harvested and RNA was extracted using RNeasy Micro Kit (Qiagen) according to the manufacturer's instruction. Quantitative real-time PCR was performed with QuantiTect Probe PCR kit (Qiagen) using commercially available primers and TaqMan probes (Life Technologies).
There has been prior speculation that Ngn3 positive secretory progenitors differentiate to EECs (Genes Dev. 2002).

[2] = test system: intestinal stem cells; assay: mRNA expression (qPCR) of ChgA and other lineage markers in differentiated intestinal stem cells; conditions: Noggin in step 2
Text: “mRNA ChgA Expression Assay” refers to an assay used to determine the relative ChgA mRNA expression level in a cell population. For example, the assay can determine ChgA mRNA expression level of a differentiated cell population following treatment with agents being tested, as compared to an untested population of post-natal stem cells. In an example of an mRNA ChgA Expression Assay, the cells were collected and the RNA is extracted from the cells using an RNA extraction kit (such as RNeasy Mini kit, Qiagen). The ChgA expression level is then assessed by Quantitative real-time PCR using a one-step qPCR kit (such as QuantiTech Probe PCR kit, Qiagen) and ChgA primers and probes (such as commercially available Taqman probe for mouse ChgA, Life Technologies).
as §1
Cells were then cultured with EGF, Noggin, and DAPT (END), as well as small molecules. After 2-3 days of differentiation, the cells lysed and ChgA expression was measured by qRT-PCR.
Small molecules were further validated using a 24-well plate culture and the differentiation system. […]

[3] = test system: gastrointestinal stem cells; assay: Insulin / Nkx6.1 mRNA expression (qPCR), 3-stage conversion to insulin producing cells; conditions: added in Stage 1, combined with RepSox
Text: “mRNA Insulin Expression Assay” refers to an assay used to determine the relative insulin mRNA expression level of a cell population. For example, the assay can determine the insulin mRNA level expressed in a cell population treated to increase the expression of insulin in the cells, as compared to an untreated population of cells. In an exemplary mRNA Insulin Expression Assay, the cells were collected and the RNA is extracted from the cells using an RNA extraction kit (such as RNeasy Mini kit, Qiagen). The insulin expression level is then assessed by Quantitative real-time PCR using a one-step qPCR kit (such as QuantiTech Probe PCR kit, Qiagen) and Ins1 or Ins2 primers and probes (such as the commercially available TaqMan probe for mouse Ins1 and Ins2, Life Technologies). The relative insulin mRNA expression can be determined relative to a baseline or other marker, such as Hprt mRNA expression level or other baseline marker.
as §1, with “Technologies). […]” for “Technologies).”

B1: R-spondin1: Wnt activator, a protein belonging to the R-Spondin family (protein, UniProt Q2MKA7 21-263, looked up)
R-spondin-1: SRGIKGKRQRRISAEGSQACAKGCELCSEVNGCLKCSPKLFILLERNDIRQVGVCLPSCPPGYFDARNPDMNKCIKCKIEHCEACFSHNFCTKCKEGLYLHKGRCYPACPEGSSAANGTMECSSPAQCEMSEWSPWGPCSKKQQLCGFRRGSEERTRRVLHAPVGDHAACSDTKETRRCTVRRVPCPEGQKRRKGGQGRRENANRNLARKESKEAGAGSRRRKGQQQQQQQGTVGPLTSAGPA
B1 was tested, and the “Ngn3 expression on removal of R-spondin1” value [1] was “strong reduction”.

B2: Noggin: growth factor (protein, UniProt Q13253 28-232, looked up)
Noggin: QHYLHIRPAPSDNLPLVDLIEHPDPIFDPKEKDLNETLLRSLLGGHYDPGFMATSPPEDRPGGGGGAAGGAEDLAELDQLLRQRPSGAMPSEIKGLEFSEGLAQGKKQRLSKKLRRKLQMWLWSQTFCPVLYAWNDLGSRFWPRYVKVGSCFSKRSCSVPEGMVCKPSKSVHLTVLRWRCQRRGGQRCGWIPIQYPIISECKCSC
B2 was tested, and the “effect on EEC differentiation” value [2] was “marginal”.

B3: FGF10: growth factor added in Stage 1 (protein, UniProt O15520 38-208, looked up)
Fibroblast growth factor 10: QALGQDMVSPEATNSSSSSFSSPSSAGRHVRSYNHLQGDVRWRKLFSFTKYFLKIEKNGKVSGTKKENCPYSILEITSVEIGVVAVKAINSNYYLAMNKKGKLYGSKEFNNDCKLKERIEENGYNTYASFNWQHNGRQMYVALNGKGAPRRGQKTRRKNTSAHFLPMVVHS
In the case of B3, the Insulin expression [3] is reported as “further increased”.
